Target: T1, GST-Sirt1 (human, UniProt Q96EB6 1-747)
T1 sequence (looked up): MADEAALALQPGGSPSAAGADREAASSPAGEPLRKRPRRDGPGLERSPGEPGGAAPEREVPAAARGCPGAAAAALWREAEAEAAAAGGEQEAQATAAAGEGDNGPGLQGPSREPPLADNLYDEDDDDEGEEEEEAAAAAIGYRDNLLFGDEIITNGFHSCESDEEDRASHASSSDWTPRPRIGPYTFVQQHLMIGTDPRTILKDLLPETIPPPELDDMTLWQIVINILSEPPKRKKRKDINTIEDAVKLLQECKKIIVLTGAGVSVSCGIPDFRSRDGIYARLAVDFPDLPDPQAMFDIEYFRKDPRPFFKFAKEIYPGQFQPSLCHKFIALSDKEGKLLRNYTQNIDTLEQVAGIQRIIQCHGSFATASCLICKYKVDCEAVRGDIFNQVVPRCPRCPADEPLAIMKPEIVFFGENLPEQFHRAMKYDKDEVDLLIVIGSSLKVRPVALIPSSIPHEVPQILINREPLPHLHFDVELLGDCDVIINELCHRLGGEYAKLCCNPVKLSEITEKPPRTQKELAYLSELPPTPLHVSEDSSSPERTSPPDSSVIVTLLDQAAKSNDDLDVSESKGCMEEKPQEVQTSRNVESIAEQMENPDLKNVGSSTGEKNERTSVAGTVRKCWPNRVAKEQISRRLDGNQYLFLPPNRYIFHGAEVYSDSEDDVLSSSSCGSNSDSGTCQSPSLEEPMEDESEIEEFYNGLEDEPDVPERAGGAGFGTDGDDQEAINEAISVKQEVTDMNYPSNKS
Test: pull-down

binding result: binds
B1: MBP-CHCHD2-His (CHCHD2-isoform2) (natural protein, human, UniProt Q9Y6H1 1-151, looked up)
chain: MPRGSRSRTSRMAPPASRAPQMRAAPRPAPVAQPPAAAPPSAVGSSAAAPRQPGLMAQMATTAAGVAVGSAVGHTLGHAITGGFSGGSNAEPARPDITYQEPQGTQPAQQQQPCLYEIKQFLECAQNQGDIKLCEGFNEVLKQCRLANGLA

From paper PMC10300302 (Cell Insight, 2023)
